This note sets out measurements from article PMC5145181, “Structural Mapping and Functional Characterization of Zebrafish Class B G-Protein Coupled Receptor (GPCR) with Dual Ligand Selectivity towards GLP-1 and Glucagon” (PLoS ONE, 2016).

Experiment [1] addresses zebrafish class B G-protein coupled receptor (zfGPCR), dual zfGLP-1R/GCGR (zebrafish (Danio rerio)). The experiment is described as follows: radioligand binding; competitive displacement of 125I-exendin(9-39) (100,000 cpm/well) from recombinant zfGPCR on transiently transfected COS-7 cells in 24-well plates; cold peptide pM to μM in triplicate; 16-18 h at 4°C; IC50 by four-parameter logistic fit (Prism 4). A general note: Displacement assays read how much labelled ligand stays bound in the presence of the test substance.

Experiment [2] has the same target. The experiment is described as follows: radioligand binding; competitive displacement of 125I-hGLP-1(7-36)amide (100,000 cpm/well) from recombinant zfGPCR on transiently transfected COS-7 cells in 24-well plates; cold peptide pM to μM in triplicate; 16-18 h at 4°C; IC50 by four-parameter logistic fit (Prism 4).
Experiment [3] shares this target. The experiment is described as follows: radioligand binding.

Sequence of human GLP-1(7-36)amide (hGLP-1) (P01275 98-127): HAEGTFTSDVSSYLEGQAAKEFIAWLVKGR
Sequence of human glucagon (P01275 53-81): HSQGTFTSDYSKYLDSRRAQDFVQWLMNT

As to “exendin-4 (from UniProt P26349 48-87) (peptide)”, the IC50 – broadly, the point on the concentration scale where inhibition reaches its midpoint – is 1 nM in experiment [1] and 0.48 nM in experiment [2].

zebrafish GLP-1 (zfGLP-1) (peptide): the figures for the IC50 in experiment [3] and in experiment [2] were 290 nM and 2.1 nM, respectively. For the substance zebrafish glucagon (peptide), the IC50 in experiment [3] was 106 nM; in experiment [2], 2.4 nM.

For exendin(9-39) (peptide), the concentration for half-maximal inhibition (IC50) in experiment [1] amounted to 4.21 nM; in experiment [2], 5.8 nM.

Take “human GLP-1(7-36)amide (hGLP-1) (from UniProt P01275 98-127) (peptide)”: the IC50 in experiment [3] amounted to 178 nM; in experiment [2], 3.6 nM. As for “human glucagon (from UniProt P01275 53-81) (peptide)”, the IC50 in experiment [3] stood at 67 nM.
